In patent US6348573B1, “Compositions and methods for identifying apoptosis signaling pathway inhibitors and activators” (The Regents of the University of Michigan, priority 1998, dated 2002):
Blank lines part the entries; values can stand above or below the molecule they belong to.

Key:
BJAB cells = experiment: BJAB apoptosis induced by anti-CD95 (anti-APO1) antibody; format: cell-based, human; details: BJAB stably expressing the mutant vs control plasmid, PI staining
Experimental: The total amount of transfected plasmid DNA was adjusted with pcDNA3 plasmid to be the same within individual experiments. After transfection, 293T cells were harvested at different times and lysed with 0.2% NP-40 isotonic lysis buffer [N. Inohara et al., Proc. Natl. Acad. Sci. U.S.A. 94:10717-10722 (1997)]. The B lymphocyte-derived BJAB cell line was stably trasnfected by electroporation with pcDNA3 or pcDNA3-Flag-RICK (K38M). After selection with […] (1 μg/ml), bulk cell lines were tested for RICK protein expression with anti-Flag antibody by flow cytometric analysis. […]
Apoptosis Assays: 5×10^5 293T cells were co-transfected with 0.2 μg of pcDNA3-β-gal plus each expression plasmid in triplicate by the calcium phosphate method as reported [N. Inohara et al., Proc. Natl. Acad. Sci. U.S.A. 94:10717-10722 (1997)]. […] At least 300 hundred blue-staining cells were counted. BJAB apoptosis induced by anti-Apol mAb was determined by flow cytometric analysis of nuclei stained with propidium iodide as described [R. Merino et al., J. Immunol. […] Statistical significance was determined by one-way ANOVA followed by Student-Neuman-Keuls post-doc comparisons.

293T cells = experiment: Apoptosis assay, RICK co-transfection; format: cell-based, human; details: 293T cells
Experimental: (§1) The total amount of transfected plasmid DNA was adjusted with pcDNA3 plasmid to be the same within individual experiments. After transfection, 293T cells were harvested at different times and lysed with 0.2% NP-40 isotonic lysis buffer [N. Inohara et al., Proc. Natl. Acad. Sci. U.S.A. 94:10717-10722 (1997)]. The B lymphocyte-derived BJAB cell line was stably trasnfected by electroporation with pcDNA3 or pcDNA3-Flag-RICK (K38M). After selection with […] (1 μg/ml), bulk cell lines were tested for RICK protein expression with anti-Flag antibody by flow cytometric analysis. For immunoprecipitation, 1 mg of soluble protein was incubated with 10 μg/ml of polyclonal anti-Flag, anti-myc or control antibody overnight at 4° C. and tagged proteins were immunoprecipitated with Protein A-Sepharose 4B (Zymed Laboratories Inc.). Immunoprecipitated proteins or total lysates were subjected to 12% SDS-polyacrylamide electrophoresis and immunoblotted with monoclonal antibodies (mAb) to HA (Boeringer Mannheim) or Flag (Kodak).
Apoptosis Assays: 5×10^5 293T cells were co-transfected with 0.2 μg of pcDNA3-β-gal plus each expression plasmid in triplicate by the calcium phosphate method as reported [N. Inohara et al., Proc. Natl. Acad. Sci. U.S.A. 94:10717-10722 (1997)]. In some experiments, 20 μM of the caspase inhibitor zVAD-fmk (Enzyme Systems Products) or 12.5 μl of medium from […] cells producing Fas ligand (Immunex Corporation, Seattle, Wash.) was added at 8 hrs after transfection. At 18 or 24 hours after transfection, cells were fixed, stained for β-galactosidase as described [N. Inohara et al., Proc. Natl Acad. Sci. U.S.A. 94:10717-10722 (1997)] and assayed for morphological features of apoptosis. At least 300 hundred blue-staining cells were counted. BJAB apoptosis induced by anti-Apol mAb was determined by flow cytometric analysis of nuclei stained with propidium iodide as described [R. Merino et al., J. Immunol. 155:3830-3838 (1995)]. Statistical significance was determined by one-way ANOVA followed by Student-Neuman-Keuls post-doc comparisons.

caspase-8 = biological target: T1, caspase-8 (Homo sapiens, UniProt Q14790); experiment: Caspase enzymatic assay (Ac-DEVD-AMC) after RICK co-transfection; format: biochemical; details: immunoprecipitated caspase-8, Ac-DEVD-AMC substrate
T1 construct: expressed in transfected cells; host or cells: human 293T cells
Experimental: Caspase Enzymatic Assay: The human FADD cDNA was cloned into the BamHI and XhoI sites of pcDNA3-myc to produce C-terminal myc-tagged FADD. 5×10^6 293T cells were transfected with 5 μg of pcDNA3, pcDNA3-caspase-8-AU1 or pcDNA3-caspase-8-mt-AU1 [N. Inohara et al., Proc. Natl. Acad. Sci. U.S.A. 94:10717-10722 (1997)] plus 5 μg of pcDNA3, pcDNA3-FADD-myc or pcDNA3- Flag-RICK. At 16 hours after transfection, cells were harvested and lysed with NP-40 buffer [N. Inohara et al., Proc. Natl. Acad. Sci. U.S.A. 94:10717-10722 (1997)]. AU1-tagged proteins were immunoprecipitated with mAb to AU1 and the Ac-DEVD-AMC cleavage activity was measured as previously described [N. Inohara et al., Proc. Natl. Acad. Sci. U.S.A. 94:10717-10722 (1997)].

CLARP [1] = biological target: T2, CLARP (Homo sapiens, UniProt O15519); experiment: Co-immunoprecipitation of RICK with CLARP; format: binding
Experimental: as §1

[2] = tested on: caspase-1, caspase-2, caspase-3, caspase-4, caspase-8, CED-3, CED-4, Bcl-XL, TRAF2, c-IAP-1, c-IAP-2 or RAIDD; experiment: Association of RICK with other apoptosis regulatory proteins; format: binding; details: 293T lysates
Experimental: as §1

FADD [3] = biological target: T3, FADD (Homo sapiens, UniProt Q13158); experiment: In vitro phosphorylation of recombinant FADD by RICK immunoprecipitates; format: biochemical; details: immunoprecipitates from 293T cells, 5 μM [γ-32P]ATP
T3 construct: made in house
T3 sequence (Q13158 1-208): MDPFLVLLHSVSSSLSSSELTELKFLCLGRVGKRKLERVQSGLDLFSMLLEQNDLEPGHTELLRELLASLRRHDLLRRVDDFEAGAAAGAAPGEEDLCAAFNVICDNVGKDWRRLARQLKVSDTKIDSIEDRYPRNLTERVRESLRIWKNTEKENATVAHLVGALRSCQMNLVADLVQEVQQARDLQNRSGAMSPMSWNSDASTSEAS
Source text: CIPERK proteins in total lysate were detected by immunoblotting with mAb to Flag (middle panel). Recombinant FADD on the same filter used in (A) was detected by immunoblotting, with rabbit polyclonal anti-(His)6 antibody (lower panel). Note CIPERK was autophosphorylated. The estimated molecular size is shown on the left [293T cells were transfected with vector control or plasmid expressing Flag-CIPERK (WT) or Flag-CIPERK-K38M (mt), and then CIPERK proteins were immunoprecipitated by mAb to Flag and incubated with recombinant FADD and 5 μM [γ-^32P]ATP].

NF-KB = NF-KB activation by RICK; format: cell-based, human; details: 293T cells
FADD [4] = biological target: T3, FADD; experiment: FADD phosphorylation in transfected cells; format: cell-based; details: 293T cells, co-expression with CLARP
Experimental: Therefore, next it was determined whether expression of CIPERK can regulate the phosphorylation of FADD in vivo. Expression plasmids producing HA-CLARP, Flag-CIPERK and AU1-FADD were transiently transfected into 293T cells, and the expression of FADD was monitored by immunoblotting with anti-AU1 antibody. Transfection of plasmids producing either FADD or FADD plus CIPERK induced the expression of two closely migrating AU1-tagged FADD proteins of ˜27 kDa (FIG. 12A). In contrast, co-expression of FADD, CIPERK and CLARP induced the expression of two additional FADD bands migrating at ˜30 kDa (FIG. 12A), previously shown to represent phosphorylated FADD [B. Z. Stanger et al., Cell 81:513-523 (1995)]. […] The increased induction of FADD phosphorylation by CLARP was specific in that was not observed when FADD was co-expressed with only CIPERK and caspase-8 (FIG. 12A). Furthermore, FADD phosphorylation was induced by ectopic expression of CD95 (FIG. 12B), a stimulus known to induce CD95 oligomerization and activation [J. P. Medema et al., EMBO J. 16:2794 -2804 (1997); B. Z. Stanger et al., Cell 81:513-523 (1995)].

CLARP [5] = biological target: T2, CLARP; experiment: Co-immunoprecipitation of RICK with CLARP; format: binding; design: expressed in transfected cells; host or cells: human 293T cells; details: CLARP-C (residues 246-480)
Experimental: as §1

[6] = biological target: T4, Flag-tagged RICK (RIP-like interacting CLARP kinase), pcDNA3-Flag-RICK (human, UniProt O43353 11-540, limits assumed); experiment: anti-Flag immunoprecipitation from co-transfected 293T cells, anti-HA immunoblot
T4 construct: Entire open reading frame of RICK, expressed in 293T cells; also called CIPERK; Flag-CIPERK; not shown: N-terminal Flag tag
T4 sequence (O43353 other isoform, or with tags, fused parts or gaps limits assumed): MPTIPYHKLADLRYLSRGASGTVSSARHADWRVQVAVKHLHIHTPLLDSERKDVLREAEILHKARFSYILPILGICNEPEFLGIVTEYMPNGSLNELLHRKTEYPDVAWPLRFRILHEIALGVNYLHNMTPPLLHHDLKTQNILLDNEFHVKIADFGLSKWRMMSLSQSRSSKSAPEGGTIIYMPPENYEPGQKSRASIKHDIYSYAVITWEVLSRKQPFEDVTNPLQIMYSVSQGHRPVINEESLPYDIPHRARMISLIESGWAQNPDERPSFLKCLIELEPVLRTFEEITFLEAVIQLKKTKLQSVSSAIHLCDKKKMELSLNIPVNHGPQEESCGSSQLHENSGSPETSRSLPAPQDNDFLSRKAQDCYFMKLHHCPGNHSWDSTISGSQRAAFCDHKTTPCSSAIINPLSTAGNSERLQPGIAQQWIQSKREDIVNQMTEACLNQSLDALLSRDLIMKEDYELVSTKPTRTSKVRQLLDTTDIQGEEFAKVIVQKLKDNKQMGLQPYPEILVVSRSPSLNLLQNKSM

Molecule: RICK-K38M: RICK ATP-binding site mutant, lysine at position 38 replaced by methionine
- sensitivity to anti-APO1-induced apoptosis (BJAB cells): significantly less sensitive

- enzymatic activity of wild-type (wt) caspase-8 (caspase-8): enhanced
- co-immunoprecipitation with CLARP (CLARP [1]; 293T lysates): co-immunoprecipitated
- interaction with the N-terminal DED-containing domain of CLARP (CLARP [1]; CLARP-N): not
- phosphorylation of recombinant FADD (FADD [3]): induced phosphorylation
- interaction with the C-terminal caspase-like domain of CLARP (CLARP [5]): interacted
Molecule: RICK: RIP-like interacting CLARP kinase, protein of 531 amino acids (SEQ ID NO:1)
- induction of apoptosis by expression of RICK (293T cells; RICK alone): did not
- apoptosis induced by FADD, CLARP and caspase-8 (293T cells; co-expression of wt or mutant RICK): enhanced
- apoptosis promoted by caspase-8 (293T cells; co-expression with RICK): augmented
- apoptosis promoted by caspase-10 (293T cells; co-expression with RICK): augmented
- apoptosis induced by caspase-8-mt (293T cells; co-expression with RICK, Cys377 to Ser mutant): did not augment
- association with multiple apoptosis regulatory proteins (caspase-1, -2, -3, -4, -8, CED-3, CED-4, Bcl-XL, TRAF2, c-IAP-1, c-IAP-2, RAIDD) [2]: did not associate
- activation of NFkB (NF-KB): induction of NFkB
- phosphorylation of FADD in cells (FADD [4]): induced the phosphorylation of FADD in the presence of CLARP

- binding result [6]: no binding
B1: caspase-8, epitope-tagged (pcDNA3-caspase-8-AU1) (enzyme, human, UniProt Q14790-4 1-496, looked up, not shown: small tags and cut ends)
chain: MDFSRNLYDIGEQLDSEDLASLKFLSLDYIPQRKQEPIKDALMLFQRLQEKRMLEESNLSFLKELLFRINRLDLLITYLNTRKEEMERELQTPGRAQISAYRFHFCRMSWAEANSQCQTQSVPFWRRVDHLLIRVMLYQISEEVSRSELRSFKFLLQEEISKCKLDDDMNLLDIFIEMEKRVILGEGKLDILKRVCAQINKSLLKIINDYEEFSKGEELCGVMTISDSPREQDSESQTLDKVYQMKSKPRGYCLIINNHNFAKAREKVPKLHSIRDRNGTHLDAGALTTTFEELHFEIKPHDDCTVEQIYEILKIYQLMDHSNMDCFICCILSHGDKGIIYGTDGQEAPIYELTSQFTGLKCPSLAGKPKVFFIQACQGDNYQKGIPVETDSEEQPYLEMDLSSPQTRYIPDEADFLLGMATVNNCVSYRNPAEGTWYIQSLCQSLRERCPRGDDILTILTEVNYEVSNKDDKKNMGKQMPQPTFTLRKKLVFPSD
notes: also called AU1-tagged caspase-8; FLICE

- binding result [6]: no binding
B2: C. elegans CED-3, epitope-tagged (pcDNA3-Ced-3-Flag) (enzyme, UniProt P42573 1-503, looked up)
chain: MMRQDRRSLLERNIMMFSSHLKVDEILEVLIAKQVLNSDNGDMINSCGTVREKRREIVKAVQRRGDVAFDAFYDALRSTGHEGLAEVLEPLARSVDSNAVEFECPMSPASHRRSRALSPAGYTSPTRVHRDSVSSVSSFTSYQDIYSRARSRSRSRALHSSDRHNYSSPPVNAFPSQPSSANSSFTGCSSLGYSSSRNRSFSKASGPTQYIFHEEDMNFVDAPTISRVFDEKTMYRNFSSPRGMCLIINNEHFEQMPTRNGTKADKDNLTNLFRCMGYTVICKDNLTGRGMLLTIRDFAKHESHGDSAILVILSHGEENVIIGVDDIPISTHEIYDLLNAANAPRLANKPKIVFVQACRGERRDNGFPVLDSVDGVPAFLRRGWDNRDGPLFNFLGCVRPQVQQVWRKKPSQADILIAYATTAQYVSWRNSARGSWFIQAVCEVFSTHAKDMDVVELLTEVNKKVACGFQTSQGSNILKQMPEMTSRLLKKFYFWPEARNSAV
notes: not shown: position and

- binding result [6]: no binding
B3: caspase-4 (enzyme, UniProt P49662 1-377, looked up, not shown: small tags and cut ends)
chain: MAEGNHRKKPLKVLESLGKDFLTGVLDNLVEQNVLNWKEEEKKKYYDAKTEDKVRVMADSMQEKQRMAGQMLLQTFFNIDQISPNKKAHPNMEAGPPESGESTDALKLCPHEEFLRLCKERAEEIYPIKERNNRTRLALIICNTEFDHLPPRNGADFDITGMKELLEGLDYSVDVEENLTARDMESALRAFATRPEHKSSDSTFLVLMSHGILEGICGTVHDEKKPDVLLYDTIFQIFNNRNCLSLKDKPKVIIVQACRGANRGELWVRDSPASLEVASSQSSENLEEDAVYKTHVEKDFIAFCSSTPHNVSWRDSTMGSIFITQLITCFQKYSWCCHLEEVFRKVQQSFETPRAKAQMPTIERLSMTRYFYLFPGN

- binding result [6]: no binding
B4: TRAF2 (other, UniProt Q12933 1-501, looked up, not shown: small tags and cut ends)
chain: MAAASVTPPGSLELLQPGFSKTLLGTKLEAKYLCSACRNVLRRPFQAQCGHRYCSFCLASILSSGPQNCAACVHEGIYEEGISILESSSAFPDNAARREVESLPAVCPSDGCTWKGTLKEYESCHEGRCPLMLTECPACKGLVRLGEKERHLEHECPERSLSCRHCRAPCCGADVKAHHEVCPKFPLTCDGCGKKKIPREKFQDHVKTCGKCRVPCRFHAIGCLETVEGEKQQEHEVQWLREHLAMLLSSVLEAKPLLGDQSHAGSELLQRCESLEKKTATFENIVCVLNREVERVAMTAEACSRQHRLDQDKIEALSSKVQQLERSIGLKDLAMADLEQKVLEMEASTYDGVFIWKISDFARKRQEAVAGRIPAIFSPAFYTSRYGYKMCLRIYLNGDGTGRGTHLSLFFVVMKGPNDALLRWPFNQKVTLMLLDQNNREHVIDAFRPDVTSSSFQRPVNDMNIASGCPLFCPVSKMEAKNSYVRDDAIFIKAIVDLTGL
